Results: patent CN115594767A

Key:
[1] = target: HER2 (Human epidermal growth factor receptor 2) (human) (UniProt P04626); test: ELISA, HER2 coated at 1 ug/mL, HRP-anti-human IgG Fc detection
CD16A-158V = CD16A-158V (UniProt P08637); test: BLI, CD16A-158V on anti-his probe, antibody as analyte
Chain of UniProt P08637 (P08637 17-208 F176V limits assumed): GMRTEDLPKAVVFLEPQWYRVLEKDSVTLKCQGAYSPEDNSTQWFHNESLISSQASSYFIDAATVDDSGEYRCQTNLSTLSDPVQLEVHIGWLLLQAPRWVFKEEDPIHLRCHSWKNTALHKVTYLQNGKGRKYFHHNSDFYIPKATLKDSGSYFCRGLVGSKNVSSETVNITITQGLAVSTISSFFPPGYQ

EC50 [1] [nM] | Kd (CD16A-158V) [nM] | koff (CD16A-158V) [s⁻¹] | kon (CD16A-158V) [M⁻¹ s⁻¹] | Substance
0.149 | 464 | 0.0782 | 168000 | KN026 (bispecific antibody)
0.127 |  |  |  | MGAH22 (antibody)
